In publication PMC4066437, “Oxidation of cellular amino acid pools leads to cytotoxic mistranslation of the genetic code” (eLife, 2014):

B1: ScctPheRS (Saccharomyces cerevisiae cytoplasmic PheRS; Yeast ct) (Saccharomyces cerevisiae S288C) (protein)
chain: SDFQLEILKKLDELDEIKSTLATFPQHGSQDVLSALNSLKAHNKLEFSKVDTVTYDLTKEGAQILNEGSYEIKLVKLIQELGQLQIKDVMSKLGPQVGKVGQARAFKNGWIAKNASNELELSAKLQNTDLNELTDETQSILAQIKNNSHLDSIDAKILNDLKKRKLIAQGKITDFNVTKGPEFSTDLTKLETDLTSDMVSTNAYKDLKFKPYNFNSQGVQISSGALHPLNKVREEFRQIFFSMGFTEMPSNQYVETGFWNFDALYVPQQHPARDLQDTFYIKDPLTADLPDDKTYMDNIKAVHEQGRFGSIGYRYNWKPEECQKLVLRTHSTAISARMLHDLAKDPKPTRLFSIDRVFRNEAVDATHLAEFHQVEGVLADYNITLGDLIKFMEEFFERMGVTGLRFKPTYNPYTEPSMEIFSWHEGLQKWVEIGNSGMFRPEMLESMGLPKDLRVLGWGLSLERPTMIKYKVQNIRELLGHKVSLDFIETNPAARLDEDLYE
notes: His-tagged purified cytoplasmic enzyme; (alpha beta)2 heterotetramer; with Phenylalanine--tRNA ligase beta subunit
B2: EcPheRS (E. coli phenylalanine-tRNA synthetase) (Escherichia coli K-12) (protein)
chain: MSHLAELVASAKAAISQASDVAALDNVRVEYLGKKGHLTLQMTTLRELPPEERPAAGAVINEAKEQVQQALNARKAELESAALNARLAAETIDVSLPGRRIENGGLHPVTRTIDRIESFFGELGFTVATGPEIEDDYHNFDALNIPGHHPARADHDTFWFDTTRLLRTQTSGVQIRTMKAQQPPIRIIAPGRVYRNDYDQTHTPMFHQMEGLIVDTNISFTNLKGTLHDFLRNFFEEDLQIRFRPSYFPFTEPSAEVDVMGKNGKWLEVLGCGMVHPNVLRNVGIDPEVYSGFAFGMGMERLTMLRYGVTDLRSFFENDLRFLKQFK
notes: His-tagged, from plasmid pQE31-EcFRS (pheS and pheT), dialysed against PPi; (alpha beta)2 heterotetramer; with Phenylalanine--tRNA ligase beta subunit

Legend:
Assay in all cases: ATP/PPi exchange (amino acid activation)
[1] = substrate: NC(Cc1cccc(O)c1)C(=O)O; assay type: biochemical, Saccharomyces cerevisiae; settings: 2 mM ATP, 2 mM [32P]PPi, 10 mM MgCl2, pH 7.2, 37 °C, D,L-m-Tyr varied 20-2000 µM
Source text: (§1) ATP/PPi exchange (amino acid activation) on ScctPheRS (Saccharomyces cerevisiae cytoplasmic PheRS; Yeast ct)

[2] = substrate: N[C@@H](Cc1ccccc1)C(=O)O; assay type: biochemical, Saccharomyces cerevisiae; settings: 2 mM ATP, 2 mM [32P]PPi, 10 mM MgCl2, pH 7.2, 37 °C, stereochemistry of Phe not given
Source text: as §1

[3] = substrate: NC(Cc1cccc(O)c1)C(=O)O; assay type: biochemical, Escherichia coli; settings: 2 mM ATP, 2 mM [32P]PPi, 10 mM MgCl2, pH 7.2, 37 °C, D,L-m-Tyr varied 20-2000 µM
Source text: (§2) ATP/PPi exchange (amino acid activation) on EcPheRS (E. coli phenylalanine-tRNA synthetase)

[4] = substrate: N[C@@H](Cc1ccccc1)C(=O)O; assay type: biochemical, Escherichia coli; settings: 2 mM ATP, 2 mM [32P]PPi, 10 mM MgCl2, pH 7.2, 37 °C, stereochemistry of Phe not given
Source text: as §2

Row | Protein | Km [1] [µM] | kcat [1] [s⁻¹] | kcat/Km [1] [M⁻¹ s⁻¹] | Km [2] [µM] | kcat [2] [s⁻¹] | kcat/Km [2] [M⁻¹ s⁻¹] | Km [3] [µM] | kcat [3] [s⁻¹] | kcat/Km [3] [M⁻¹ s⁻¹] | Km [4] [µM] | kcat [4] [s⁻¹] | kcat/Km [4] [M⁻¹ s⁻¹]
1 | B1 | 1150 ± 230 | 26 ± 4 | 23000 | 16 ± 2 | 26 ± 4 | 1.6e+06 | – | – | – | – | – | –
2 | B2 | – | – | – | – | – | – | 247 ± 60 | 2.1 ± 0.8 | 8000 | 18 ± 4 | 5.2 ± 2 | 290000
